Assay results taken from patent publication US20240116985A1 (published 2024).
Starred links: 1 amine or outer side, 2 acyl side, 3 side chain; linkers in the order of their positions; H or OH if unused. Positions of bridges follow the written chain, without caps; N, C: chain ends. Non-standard residues stand in square brackets, D forms with d. Primed or numbered codes have the meaning given here. B5(26) = 2-amino-2-(pent-4-en-1-yl)hept-6-enoic acid (bis-pentenylglycine), stitching residue carrying two staples, C=CCCCC(CCCC=C)(N[*:1])C(=O)[*:2]; PyrS3″ = (S)-3-amino-1-((hex-5-en-1-yloxy)carbonyl)pyrrolidine-3-carboxylic acid (stapling residue), C=CCCCCOC(=O)N1CC[C@@](N[*:1])(C(=O)[*:2])C1; B5(16) = 2-amino-2-(pent-4-en-1-yl)hept-6-enoic acid = 2,2-bis(4-pentenyl)glycine (stitching residue), C=CCCCC(CCCC=C)(N[*:1])C(=O)[*:2]; B5(24) = 2-amino-2-(pent-4-en-1-yl)hept-6-enoic acid, 2,2-bis(4-pentenyl)glycine (stitching residue), C=CCCCC(CCCC=C)(N[*:1])C(=O)[*:2]; B5(21) = 2-amino-2-(pent-4-en-1-yl)hept-6-enoic acid, bis(4-pentenyl)glycine (stitching residue), C=CCCCC(CCCC=C)(N[*:1])C(=O)[*:2]; B5(9) = 2-amino-2-(pent-4-en-1-yl)hept-6-enoic acid (2,2-bis(4-pentenyl)glycine), C=CCCCC(CCCC=C)(N[*:1])C(=O)[*:2]; S(OMe) = O-methyl-L-serine, COC[C@H](N[*:1])C(=O)[*:2]; Phe(2-NO2) = N[C@@H](Cc1ccccc1[N+](=O)[O-])C(=O)O; Phe(2-Cl) = N[C@@H](Cc1ccccc1Cl)C(=O)O; Phe(2-OMe) = COc1ccccc1C[C@H](N)C(=O)O; Phe(3-F) = N[C@@H](Cc1cccc(F)c1)C(=O)O; Phe(4-F) = N[C@@H](Cc1ccc(F)cc1)C(=O)O; His(τ-Me) = Cn1cnc(C[C@H](N)C(=O)O)c1; Phe(2-F) = N[C@@H](Cc1ccccc1F)C(=O)O; Bta = N[C@@H](Cc1csc2ccccc12)C(=O)O; His(π-Me) = Cn1cncc1C[C@H](N)C(=O)O; αAllylPro = C=CC[C@@]1(C(=O)O)CCCN1; 2Thi = N[C@@H](Cc1cccs1)C(=O)O; S8 = C=CCCCCCC[C@](C)(N)C(=O)O

T1: full-length beta-Catenin (Uniprot ID P35222) (Homo sapiens (Human), UniProt P35222 2-781)
T1 construct: Tags of the recombinant protein are not described for the FP assay; also called bCat; B-Catenin
T1 sequence: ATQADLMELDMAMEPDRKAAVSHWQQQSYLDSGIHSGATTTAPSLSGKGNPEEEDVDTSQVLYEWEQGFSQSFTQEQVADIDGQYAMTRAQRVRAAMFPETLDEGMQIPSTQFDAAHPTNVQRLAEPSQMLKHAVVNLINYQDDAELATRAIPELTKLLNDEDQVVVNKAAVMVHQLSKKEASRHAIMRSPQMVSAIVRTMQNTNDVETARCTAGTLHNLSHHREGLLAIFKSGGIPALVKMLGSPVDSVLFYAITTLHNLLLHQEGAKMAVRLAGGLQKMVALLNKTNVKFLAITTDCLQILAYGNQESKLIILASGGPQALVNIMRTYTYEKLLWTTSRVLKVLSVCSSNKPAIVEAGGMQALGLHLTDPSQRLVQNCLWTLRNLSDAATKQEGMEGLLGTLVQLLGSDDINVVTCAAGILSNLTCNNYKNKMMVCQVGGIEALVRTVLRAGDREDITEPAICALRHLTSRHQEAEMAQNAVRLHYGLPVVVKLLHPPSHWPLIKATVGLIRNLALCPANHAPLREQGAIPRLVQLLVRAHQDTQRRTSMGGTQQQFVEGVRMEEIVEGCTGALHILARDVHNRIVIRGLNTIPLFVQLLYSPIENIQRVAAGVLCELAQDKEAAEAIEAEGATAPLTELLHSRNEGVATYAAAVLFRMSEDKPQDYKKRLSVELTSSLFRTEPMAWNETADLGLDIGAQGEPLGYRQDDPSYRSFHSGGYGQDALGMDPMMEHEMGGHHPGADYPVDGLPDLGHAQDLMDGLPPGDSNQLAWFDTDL

T2: full-length beta-Catenin (Uniprot ID P35222) (Homo sapiens (Human), UniProt P35222 1-781)
T2 construct: The assay protocol says full-length beta-Catenin (Uniprot ID P35222); tags are not described; also called bCat; B-Catenin
T2 sequence: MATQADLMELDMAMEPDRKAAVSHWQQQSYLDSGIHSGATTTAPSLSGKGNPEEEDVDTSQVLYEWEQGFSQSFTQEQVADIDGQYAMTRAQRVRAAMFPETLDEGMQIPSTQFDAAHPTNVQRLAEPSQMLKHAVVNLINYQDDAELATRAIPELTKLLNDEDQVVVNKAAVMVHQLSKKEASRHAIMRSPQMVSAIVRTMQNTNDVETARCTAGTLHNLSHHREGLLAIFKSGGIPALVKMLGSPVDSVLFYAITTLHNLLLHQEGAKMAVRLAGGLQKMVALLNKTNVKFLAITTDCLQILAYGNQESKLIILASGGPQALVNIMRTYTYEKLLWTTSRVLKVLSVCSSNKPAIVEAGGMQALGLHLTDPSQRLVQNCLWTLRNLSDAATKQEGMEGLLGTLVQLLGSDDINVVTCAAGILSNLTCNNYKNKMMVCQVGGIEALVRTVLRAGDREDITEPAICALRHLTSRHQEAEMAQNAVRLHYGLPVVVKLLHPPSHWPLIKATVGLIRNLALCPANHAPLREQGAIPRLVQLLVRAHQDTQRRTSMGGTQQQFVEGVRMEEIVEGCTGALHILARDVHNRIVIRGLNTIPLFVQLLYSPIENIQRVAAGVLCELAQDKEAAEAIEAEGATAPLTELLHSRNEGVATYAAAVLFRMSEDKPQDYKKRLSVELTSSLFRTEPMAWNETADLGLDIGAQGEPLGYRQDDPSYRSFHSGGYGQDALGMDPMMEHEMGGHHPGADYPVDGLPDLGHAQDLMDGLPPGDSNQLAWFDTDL

B1: I-647 (peptide)
peptide: Ac-[αAllylPro]DI[B5(9)]DELAFQ[S8]F[Bta]Q-NH2
modifications: staple 1-4, 4-11
notes: Stapled peptide composition; also called Ac-PL3-Asp-Ile-B5-Asp-Glu-Leu-Ala-Phe-Gln-S8-Phe-BztA-Gln-NH2
B2: I-650 (peptide)
peptide: Ac-[αAllylPro]DI[B5(16)]DEFAFQ[S8]F[Bta]Q-NH2
modifications: staple 1-4, 4-11
notes: Stapled peptide composition; also called Ac-PL3-Asp-Ile-B5-Asp-Glu-Phe-Ala-Phe-Gln-S8-Phe-BztA-Gln-NH2
B3: I-649 (peptide)
peptide: Ac-[αAllylPro]DI[B5(9)]DEFAFQ[S8]F[Bta]Q-NH2
modifications: staple 1-4, 4-11
notes: as for B2
B4: I-651 (peptide)
peptide: Ac-[αAllylPro]DI[B5(16)]DESAFQ[S8]F[Bta]Q-NH2
modifications: staple 1-4, 4-11
notes: Stapled peptide composition; also called Ac-PL3-Asp-Ile-B5-Asp-Glu-Ser-Ala-Phe-Gln-S8-Phe-BztA-Gln-NH2
B5: I-648 (peptide)
peptide: Ac-[αAllylPro]DI[B5(9)]DELAFQ[S8]F[Bta]Q-NH2
modifications: staple 1-4, 4-11
notes: as for B1
B6: I-437 (peptide)
peptide: Ac-[αAllylPro]DA[B5(24)]DEAAFN[S8][Phe(2-OMe)][Bta]Q-NH2
modifications: staple 1-4, 4-11
notes: Stapled (stitched) peptide with non-natural residues
B7: I-441 (peptide)
peptide: Ac-[αAllylPro]DA[B5(21)]DEAAFN[S8][Phe(2-NO2)][Bta]Q-NH2
modifications: staple 1-4, 4-11
notes: as for B6
B8: I-464 (peptide)
peptide: Ac-[αAllylPro]DA[B5(21)]DEAAFN[PyrS3″]F[Bta]Q-NH2
modifications: staple 1-4, 4-11; not fully specified; printed as Ac-PL3-Asp-Ala-B5-Asp-Glu-Ala-Ala-Phe-Asn-PyrS3-Phe-BztA-Gln-NH2
notes: Staple isomer composition: later-eluting HPLC peak
B9: I-434 (peptide)
peptide: Ac-[αAllylPro]DA[B5(24)]DEAAFN[S8][Phe(2-F)][Bta]Q-NH2
modifications: staple 1-4, 4-11
notes: as for B6
B10: I-439 (peptide)
peptide: Ac-[αAllylPro]DA[B5(21)]DEAAFN[S8][His(τ-Me)][Bta]Q-NH2
modifications: staple 1-4, 4-11
notes: Staple isomer composition: earlier-eluting HPLC peak
B11: I-440 (peptide)
peptide: XDAXDEAAFNXHXQ
modifications: not fully specified; Ac-PL3-Asp-Ala-B5-Asp-Glu-Ala-Ala-Phe-Asn-S8-1meH-BztA-Gln-NH2; N-terminal acetyl, C-terminal amide; stapled PL3(1)-B5(4) and B5(4)-S8(11) by olefin metathesis
notes: as for B8
B12: I-438 (peptide)
peptide: Ac-[αAllylPro]DA[B5(26)]DEAAFN[S8][His(π-Me)][Bta]Q-NH2
modifications: staple 1-4, 4-11
notes: as for B6
B13: I-433 (peptide)
peptide: Ac-[αAllylPro]DA[B5(24)]DEAAF[S(OMe)][S8]F[Bta]Q-NH2
modifications: staple 1-4, 4-11
notes: as for B6
B14: I-453 (peptide)
peptide: Ac-[αAllylPro]DA[B5(21)]DEAA[Phe(2-F)]N[S8]F[Bta]Q-NH2
modifications: staple 1-4, 4-11
notes: as for B6
B15: I-455 (peptide)
peptide: Ac-[αAllylPro]DA[B5(21)]DEAA[Phe(4-F)]N[S8]F[Bta]Q-NH2
modifications: staple 1-4, 4-11
notes: as for B6
B16: I-463 (peptide)
peptide: Ac-[αAllylPro]DA[B5(21)]DEAAFN[PyrS3″]F[Bta]Q-NH2
modifications: staple 1-4, 4-11; also: earlier-eluting HPLC staple isomer
notes: as for B10
B17: I-435 (peptide)
peptide: Ac-[αAllylPro]DA[B5(24)]DEAAFN[S8][Phe(2-Cl)][Bta]Q-NH2
modifications: staple 1-4, 4-11
notes: as for B6
B18: I-450 (peptide)
peptide: Ac-[αAllylPro]DA[B5(21)]DEAA[2Thi]Q[S8][Phe(3-F)]WQ-NH2
modifications: staple 1-4, 4-11
notes: as for B6

biological target: T1, full-length beta-Catenin (Uniprot ID …); assay: fluorescence polarization competition; full-length beta-catenin, competitor 5FAM-TCF4 10-53
Description: (§1) The plate was incubated protected from light for 60 minutes at 20° C. prior to read. Reads were performed on a CLARIOstar plate reader (BMG Labtech) in duplicate, and data were fitted to a 1:1 binding model with hill slope using an in-house script. All provided concentrations are final concentrations.

Row | Binder | IC50 [nM]
1 | B1 | 445
2 | B2 | 137
3 | B3 | 209
4 | B4 | 186
5 | B5 | 233

biological target: T2, full-length beta-Catenin (Uniprot ID …); assay: fluorescence polarization competition: full-length beta-catenin + 5FAM-TCF4(10-53) probe, peptide titrated
Description: as §1

Row | Binder | EC50 [nM]
6 | B6 | 26
7 | B7 | 133
8 | B8 | 57
9 | B9 | 67.5
10 | B10 | 5000
11 | B11 | 5000
12 | B12 | 5000
13 | B13 | 136
14 | B14 | 1550
15 | B15 | 83.5
16 | B16 | 92
17 | B17 | 70
18 | B18 | 3720
